Results taken from US20220110851A1 (SKINMED, published 2022).
No end group written: not given here.

Target: acetylcholine receptor on AchR-overexpressed TE671 cells
Experiment: cell-based or functional assay

| Binder | AchR inhibitory effect, Fura-2 fluorescence in TE671 cells after 1 µM acetylcholine [%] | AchR inhibitory rate, TE671 cells, 400 µM nicotine, 20 µM peptide [%] | AchR inhibition, TE671 cells, 400 µM nicotine [%] | inhibitory ability on nicotinic acetylcholine receptors, in multiples compared with Spep-2 [times] | IC50 value for AchR (AchR inhibitory effect in TE671 cells) [nM] |
| --- | --- | --- | --- | --- | --- |
| WTWKGNKQVKF [Spep-10] | 47 | – | – | – | – |
| RFRRGVRR [L1-13] | – | ~100 | – | – | – |
| WTWKGRDKLQM [Spep-4] | 17 | – | – | – | – |
| RYAKHRKRQTR [L2-110] | – | ~100 | 100 | 8 | – |
| WTWKGRKSLLR (also: palmitoyl conjugated, site not given here) [Palmitoyl-Spep-2] | – | – | – | – | 75 |
| PNGKVRKRIRRRYF [L3-28] | – | ~100 | 100 | 16 | – |
| SNVKRKRGRCKPYR [L3-37] | – | ~100 | – | 32 | – |
| RARKKRKSLLRRQV [L3-27] | – | ~100 | 100 | 8 | – |
| WTWKGRKSLLR [Spep-2] | – | ~10 | 100 | – | 750 |
